From doi:10.1101/2020.05.14.095364 (bioRxiv, 2020) come the findings set out here.

Where only a bound is given, the exact number is not on record here.

The chains are these.
B1: GST-CGN(1-70) (domain or fragment, canine, UniProt A7YH32 1-70, looked up)
chain: MEQASTMAEPRGPVDHGVQIRFITEPVGNAEMDTLRRGGRRPAKDARANTYGVAVRVQGIAGQPFVVLNS
B2: GFP-tagged hZO-1 (residues 1619-1748), isolated ZU5 fragment (domain or fragment, human, UniProt Q07157 1619-1748, looked up)
chain: SAVEEDEDEDGHTVVATARGIFNSNGGVLSSIETGVSIIIPQGAIPEGVEQEIYFKVCRDNSILPPLDKEKGETLLSPLVMCGPHGLKFLKPVELRLPHCDPKTWQNKCLPGDPNYLVGANCVSVLIDHF

For assay [1], the target named is B2. Briefly: quantitative GST-pulldown supernatant depletion assay.
The target of assay [2] is B1. Briefly: pull-down.

The Kd is the free concentration of one partner at which half of the binding sites on the other are occupied at equilibrium, for simple one-to-one binding. In turn, B1 displayed a Kd in assay [1] of 40.4 nM.
As to B2, the “fold binding against the other ZO-1 fragments” value in assay [2] was greater than 4 fold.
